Consider 141 substances from the supplement of paper PMC12042874.

± gives the uncertainty stated by the source.

The data set is described as follows: amyloid nucleation score (Sup35N fusion, yeast selection) (log enrichment); library NNK1; higher = more nucleation; inactive = no reads after selection. An outline of the steps:
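The nucleation score equals the log enrichment of output over input reads from DiMSum, centred on the mode score of non-aggregating sequences. It was computed only for sequences with 100 or more input reads. The reads came from Illumina sequencing of plasmid inserts from psi-negative yeast expressing Sup35N fused to peptides of 20 random codons, induced with 100 μM copper sulfate for 24 hours and grown 7 days at 30°C without adenine and uracil.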
Regarding TRTAGRSVCPVIQLMSWAAY, the amyloid nucleation score is 0.277 ± 0.44.

Take TRWWGPLQFVYFPD: the amyloid nucleation score is -0.17 ± 0.68.

TRYGECAGWSGPYIADSGSA came in with an amyloid nucleation score of -0.001 ± 0.31.

TSDRTKSVLMVYSWV showed an amyloid nucleation score of -0.576 ± 0.92.

In turn, TSEGHSLRNEEEGSSEGRCK yielded an amyloid nucleation score of 0.905 ± 0.51.

In turn, TSFWLSVKSTNPFNRRQFSD displayed an amyloid nucleation score of 0.436 ± 0.35.

In turn, TSGPN returned an amyloid nucleation score of -0.882 ± 0.6.

The substance TSLNNGKSDFLYEARVLLEF registered an amyloid nucleation score of 0.541 ± 0.35.

TSLVVVSYMVTL: the amyloid nucleation score turned out to be 1.93 ± 0.42.

In turn, TSLWCQLRKFNYI gave an amyloid nucleation score of -0.181 ± 0.26.

Regarding TSMPDLGWAVSVAAQFYNFQ, the amyloid nucleation score was 5.5 ± 0.077.

In turn, TSNYAGAISFANSNILLFFV came in with an amyloid nucleation score of 3.64 ± 0.14.

For the substance TSPEVLRAIVSTSLFCCILR, the amyloid nucleation score was -0.724 ± 2.4.

Consider TSPSRIMS, for which the amyloid nucleation score was 1.12 ± 0.35.

In the case of TSRGSGSVWLDFFSHHGKIG, the amyloid nucleation score was -0.218 ± 1.4.

Substance TSRIFRCCCNCWSHA came in with an amyloid nucleation score of 1.31 ± 0.11.

As to TSSPSVTYLLRYRLQWTLHN, the amyloid nucleation score came to 0.035 ± 0.76.

Turning to TSTPNVWRKR, the amyloid nucleation score result is “inactive”.

TSYVMPEGFAVGFKMSM displayed an amyloid nucleation score of 0.205 ± 0.66.

With TTCSLVSSAAWMY, the amyloid nucleation score is -0.223 ± 0.39.

Consider TTFVSASSMRRYRCLSLGAC, for which the amyloid nucleation score was found to be 0.659 ± 0.85.

As for TTGSLVCKAAPIWFVPTPAF, the amyloid nucleation score is -1.09 ± 0.84.

In the case of TTWVVFFEPGAV, the amyloid nucleation score was -0.297 ± 0.84.

For TVCYTGEVRMLRS, the amyloid nucleation score is 4.22 ± 0.068.

TVFSSWLTQGSMYV registered an amyloid nucleation score of 1.48 ± 0.44.

With TVGSIRRNHEVLWGTRILSG, the amyloid nucleation score is -1.69 ± 2.7.

The substance TVLNDYWFSTHKLSIR showed an amyloid nucleation score of 0.958 ± 0.48.

Take TVLSRVFWQRDGFVIAQSDG: the amyloid nucleation score entry was “inactive”.

Take TVRCG: the amyloid nucleation score worked out at 0.014 ± 0.97.

As to TVRGSTRSKLSGASWQCWRA, the amyloid nucleation score was -0.023 ± 0.21.

In turn, TVVESRTPILVYFMGCRVTY displayed an amyloid nucleation score of 3.31 ± 0.11.

TVVEVRGVEQRHGLNCTNPG yielded an amyloid nucleation score of -0.05 ± 0.57.

As for TVVHINHHFRGTFISMAKSR, the amyloid nucleation score was -1.58 ± 2.1.

TWAVSNLSRV had an amyloid nucleation score of -1.61 ± 0.59.

The substance TWCCYCFLRVFFEERE registered an amyloid nucleation score of -0.298 ± 0.33.

Consider TWQAWVGCWQYQRMGTEL, for which the amyloid nucleation score amounted to 0.256 ± 0.58.

Take TWYLDFFSSPFLVGFSLSFG: the amyloid nucleation score amounted to 0.633 ± 0.49.

The substance TYCRQDRWVGSKKLSCTIDC displayed an amyloid nucleation score of -0.025 ± 0.23.

For the substance TYDALRGYNYHLWSNQFTFY, the amyloid nucleation score came out at 4.84 ± 0.066.

TYIPDIYG registered an amyloid nucleation score of 1.1 ± 0.74.

In the case of TYKFGYVHVDTFMTVLMHTL, the amyloid nucleation score is -0.169 ± 0.31.

In turn, TYPLGNSESISVRLFIQYVT displayed an amyloid nucleation score of 1.39 ± 0.12.

Regarding TYRTWLYLPLQCAIYLGVSL, the amyloid nucleation score is -0.436 ± 0.64.

TYSLYMCADKFRNTLVNKAV: the amyloid nucleation score result was “inactive”.

As to TYSVTFF, the amyloid nucleation score was found to be 0.231 ± 0.4.

On to TYWGC, for which the amyloid nucleation score came to 0.186 ± 1.

In the case of VAFYGFITKINLEIY, the amyloid nucleation score came to 0.578 ± 0.4.

As to VAGCNVDIDVNMSCRGDMWK, the amyloid nucleation score worked out at 2.81 ± 0.12.

In the case of VALDMYCFQYFQTNYYS, the amyloid nucleation score was 8.411 ± 0.045.

VALWGQYGTSIGAIGAVFSH showed an amyloid nucleation score of -0.03 ± 0.54.

In turn, VASGSCFFRDPKIVIMSFLW displayed an amyloid nucleation score of 3.34 ± 0.088.

Turning to VAVTITYAICDTLILFIEGG, the amyloid nucleation score turned out to be 4.08 ± 0.1.

In turn, VCDFNVNYMSLVCEIHGT came in with an amyloid nucleation score of 0.495 ± 0.56.

Substance VCELHLILM displayed an amyloid nucleation score of 0.425 ± 0.3.

The substance VCFALSI gave an amyloid nucleation score of -0.098 ± 0.46.

Take VCGVRMVLALSRFVLSAINN: the amyloid nucleation score came to 0.177 ± 0.65.

Regarding VCNCCLHVYIPSRAGNRPMR, the amyloid nucleation score was found to be 8.251 ± 0.072.

In the case of VCQLVILGFFLRIVTMCWLW, the amyloid nucleation score entry is “inactive”.

In turn, VCRLGSNPVQWVGPGSSVFC gave an amyloid nucleation score of 1.23 ± 0.71.

For VCRVMTSLNEGKLSAECVLV, the amyloid nucleation score was 0.594 ± 0.32.

In turn, VCYLGECRGHAIMEYWWSWR returned an amyloid nucleation score of 2.4 ± 0.24.

Consider VCYRGECVDSDLLYLSCP, for which the amyloid nucleation score is -0.389 ± 1.

VDCMGKMVLFLPTFGDGFIV: the amyloid nucleation score was -0.123 ± 0.32.

Substance VDDICIIVANSAGRDEQMSM gave an amyloid nucleation score of 1.16 ± 0.56.

Consider VDHVGGWVYWYGTRCTFVDG, for which the amyloid nucleation score was -0.048 ± 0.27.

For VDISEGCVSPVCFLMPCLMH, the amyloid nucleation score is -0.238 ± 0.29.

For VDLFYE, the amyloid nucleation score entry is “inactive”.

VDLISWLVYEKVMSRMNIYN had an amyloid nucleation score of -0.001 ± 0.4.

As for VDLLFDTNCNSF, the amyloid nucleation score entry was “inactive”.

The substance VDLNWRHVDCCYFRFTTQDH returned an amyloid nucleation score of 6.04 ± 0.074.

In turn, VEAPGLSCAIRGWNTVVIRR registered an amyloid nucleation score of 0.387 ± 0.49.

With VEGLEDGVWR, the amyloid nucleation score was found to be 0.876 ± 0.38.

VELCHIRSLMFLIQHP registered an amyloid nucleation score of 1.05 ± 0.21.

VELLGQYVICPSTRCRIVEN gave an amyloid nucleation score of 0.254 ± 0.47.

In the case of VERTCGVGTRLFTCYGQVAI, the amyloid nucleation score is -0.3 ± 0.53.

VFEADQNENGTTAPSEAQDR: the amyloid nucleation score is -0.088 ± 0.3.

As to VFFNLIKRWEVVREDTM, the amyloid nucleation score is -0.426 ± 0.35.

VFGCSGLDKSQWND showed an amyloid nucleation score of 0.434 ± 0.45.

VFIIRRDLCWRTSFCLQQEL yielded an amyloid nucleation score of 0.965 ± 0.18.

Regarding VFITSVFVRECNTHESTTIQ, the amyloid nucleation score was determined as 8.073 ± 0.078.

On to VFKSVFY, for which the amyloid nucleation score was determined as 1.99 ± 0.32.

The substance VFLKDSTVAGNVMTCDIRVV had an amyloid nucleation score of 0.078 ± 0.6.

For VFLLKDRNTTCLWKSVIQQM, the amyloid nucleation score was found to be 0.494 ± 0.34.

Regarding VFLQFVMDDSHGLNK, the amyloid nucleation score entry was “inactive”.

In turn, VFLRL came in with an amyloid nucleation score of 4.48 ± 0.1.

For VFLRRVINTSFGSMMV, the amyloid nucleation score stood at 0.976 ± 1.1.

In the case of VFMIVCK, the amyloid nucleation score entry is “inactive”.

On to VFNVGYLV, for which the amyloid nucleation score was -1.21 ± 0.55.

VFRGSWCRTNNVIPGLFNKA registered an amyloid nucleation score of 0.488 ± 0.4.

As to VFSVAGASCCRRIGSCWLLR, the amyloid nucleation score turned out to be 0.687 ± 0.97.

In the case of VFSYGWLYQAPFFRFLHTGF, the amyloid nucleation score was 0.109 ± 0.74.

On to VFYLCSLLCLIVKRLGQGDC, for which the amyloid nucleation score amounted to 0.484 ± 0.57.

Substance VGGQRKVRSDDVSMDVHTAT showed an amyloid nucleation score of 0.924 ± 0.47.

As to VGHKNSYGRFKDIWIWLWYQ, the amyloid nucleation score was -0.009 ± 1.4.

VGHNGIFYC displayed an amyloid nucleation score of -0.063 ± 0.29.

Substance VGKITESLLEQLKARHLFCH displayed an amyloid nucleation score of 4.41 ± 0.058.

VGKVCRTFNRSMGETS had an amyloid nucleation score of 0.439 ± 0.92.

As to VGNMYYGSTSHNDT, the amyloid nucleation score is -1.48 ± 1.7.

VGSHVRREFCELVYRS registered an amyloid nucleation score of -0.303 ± 0.44.

VGSIVELSVHTTSDEKVSCR: the amyloid nucleation score amounted to 0.316 ± 0.25.

VGSLFYKVRPGNNSFVTHIH displayed an amyloid nucleation score of 1.08 ± 0.88.

VGSPGCMGLVTLNHVP gave an amyloid nucleation score of 0.522 ± 0.24.

For the substance VGTLSRLSFYVVDAVSAQRG, the amyloid nucleation score came out at 0.756 ± 0.81.

Turning to VGYNNWTLVWGQGAMRVYSG, the amyloid nucleation score was 0.033 ± 0.34.

VHFDRCDLWPGMM returned an amyloid nucleation score of 0.136 ± 0.76.

In turn, VHGYL yielded an amyloid nucleation score of 0.067 ± 0.59.

VHNNCRWFAGKFPLSRVVLR yielded an amyloid nucleation score of 0.553 ± 1.2.

For VHRFQ, the amyloid nucleation score was 0.108 ± 0.61.

As to VHWIWGF, the amyloid nucleation score was 0.228 ± 0.5.

VHWRASCNMQLRADQRICIL came in with an amyloid nucleation score of -0.84 ± 0.49.

In turn, VIFDNGRLIEHCYERLTRPW came in with an amyloid nucleation score of -0.327 ± 0.61.

Regarding VIFYSLYSSVWFDSIYEGLT, the amyloid nucleation score was -0.566 ± 1.5.

VIGCAGSDLNLRSILCFILC showed an amyloid nucleation score of -0.364 ± 0.28.

On to VIGYWGW, for which the amyloid nucleation score is -0.164 ± 0.4.

VIHGC yielded an amyloid nucleation score of -0.14 ± 0.27.

Substance VIILPGGVCMMVC registered an amyloid nucleation score of 0.843 ± 0.41.

Regarding VIITLSRCSRDHTDVMGTFV, the amyloid nucleation score was -0.81 ± 1.4.

As for VIIYLMARSLKVAH, the amyloid nucleation score is 0.453 ± 0.38.

VIMFSFIS returned an amyloid nucleation score of 5.04 ± 0.062.

VIMPGRYVNLAHRLDACSVH: the amyloid nucleation score entry was “inactive”.

Take VIMQFFILCPHSVCISSENH: the amyloid nucleation score was determined as 7.497 ± 0.049.

VITRFYGSVGLRIPAIAVVL displayed an amyloid nucleation score of 0.886 ± 0.58.

Turning to VIYLGRIVVEGSNLTSKSSA, the amyloid nucleation score was 0.85 ± 0.7.

In turn, VKCVKVLMLHSWF registered an amyloid nucleation score of 1.53 ± 0.38.

Substance VKFIGYFLRNTSSSSCTSDP had an amyloid nucleation score of 0.097 ± 0.58.

On to VKMNVYYLIILNLWSYVMLG, for which the amyloid nucleation score was -0.994 ± 1.4.

With VKRRLSHYAHMDGFVCNIR, the amyloid nucleation score turned out to be 0.286 ± 1.4.

The substance VKTISCYMWFNVFN gave an amyloid nucleation score of 7.81 ± 0.05.

As to VKVCHSPKTSYDTVISRGNL, the amyloid nucleation score amounted to 0.459 ± 0.44.

As to VKYGTLYEGRNDLIDVR, the amyloid nucleation score amounted to 0.635 ± 0.62.

As for VLCRINGVRS, the amyloid nucleation score is 1.1 ± 0.97.

Substance VLCSCAMGYMFFFRAMMFR displayed an amyloid nucleation score of -0.038 ± 0.38.

The substance VLCSSWLLWKDAI showed an amyloid nucleation score of 0.218 ± 0.61.

Regarding VLDQHPRDFESRGMVMANFY, the amyloid nucleation score was found to be 1.55 ± 0.24.

VLEISIDSDRAPMCGRRMDL had an amyloid nucleation score of 0.56 ± 1.

VLEWRGPF displayed an amyloid nucleation score of -0.239 ± 0.42.

VLFKGHLIEV yielded an amyloid nucleation score of 0.138 ± 0.3.

Consider VLFLHSS, for which the amyloid nucleation score was 0.355 ± 0.49.

As to VLFLTGFGNHSFRTDQMATG, the amyloid nucleation score was determined as 0.287 ± 0.64.

Turning to VLGGCYNFLLCF, the amyloid nucleation score was 7.713 ± 0.059.

VLGLLITGDRLS yielded an amyloid nucleation score of 0.1 ± 1.4.
